In patent publication US20120237978A1:

Biological target: β2AR part of the β2AR-Gs peptide fusion construct (receptor truncated at position 365) (human) (UniProt P07550)
Test: cell-based or functional assay

- agonist affinity ([3H]-DHA competition binding with isoproterenol, Sf9 membranes): 27 fold
- effect on agonist binding affinity compared with the β2AR-Gs complex: 3.5 fold
- fraction of β2AR in the Ki high state ([3H]-DHA / isoproterenol competition, Sf9 membranes): 0.68
Substance: last 21 amino acids of the Gαs subunit (amino acids 374-394, except for C379A), as fused in the β2AR-Gs peptide fusion construct
